The source of these data is PMC8748874, “Structures of the human peroxisomal fatty acid transporter ABCD1 in a lipid environment” (Communications Biology, 2022).

For this series, the system named is T1, Nc1ncnc2c1ncn2[C@@H]1O[C@H](COP(=O)(O)OP(=O)(O)OP(=O)(O)O)[C@@H](O)[C@H]1O.
T1 construct: full length, codon-optimized synthetic gene; C-terminal eYFP-Rho1D4 tag cut off with 3C protease; HEK293 Flp-In TREX; homodimer; in DDM/CHS, liposomes or MSP1D1 nanodiscs
Description: molybdate-based colorimetric ATPase assay. The format is biochemical, Homo sapiens. As to conditions: BPL/Chol liposomes and nanodiscs, 10 mM MgCl2, pH 7.5, 37 °C, ATP 0.0625 to 8 mM.

As for ABCD1 (ALDP) (Homo sapiens), the Km entry is “about 0.3 mM”.
